Target: T1, synthetic apoA-IMilano peptide 167-R173C-184
T1 chain: SDELRQCLAARLEALKEN

B1: recombinant human LCAT enzyme (Lecithin:Cholesterol Acyltransferase) (protein)
chain: FWLLNVLFPPHTTPKAELSNHTRPVILVPGCLGNQLEAKLDKPDVVNWMCYRKTEDFFTIWLDLNMFLPLGVDCWIDNTRVVYNRSSGLVSNAPGVQIRVPGFGKTYSVEYLDSSKLAGYLHTLVQNLVNNGYVRDETVRAAPYDWRLEPGQQEEYYRKLAGLVEEMHAAYGKPVFLIGHSLGCLHLLYFLLRQPQAWKDRFIDGFISLGAPWGGSIKPMLVLASGDNQGIPIMSSIKLKEEQRITTTSPWMFPSRMAWPEDHVFISTPSFNYTGRDFQRFFADLHFEEGWYMWLQSRDLLAGLPAPGVEVYCLYGVGLPTPRTYIYDHGFPYTDPVGVLYEDGDDTVATRSTELCGLWQGRQPQPVHLLPLHGIQHLNMVFSNLTLEHINAILLGAYRQGPPASPTASPEPPPPE
With B1 the “LCAT activation (esterification of [14C]cholesterol on a proteoliposome substrate), as a percentage of activation obtained with apoA-IWT” value was “failed in this regard”.

Reference: patent US20030087819
